Assay [1] has as its target Wild-type recombinant human NGAL dimer calibrators treated with DTT (human) (UniProt P80188). The experiment in a line: … sandwich CMIA, capture HYB 211-01, detection acridinium-HYB 211-02; DTT-treated against untreated dimer calibrator; target 50 ng/mL.
Assay [2] concerns the target Wild-type recombinant human NGAL monomer expressed in CHO cells (human) (UniProt P80188). In words: … sandwich CMIA, capture HYB 211-01, detection acridinium-HYB 211-02; calibrator D, NGAL 250 ng/mL.
Assay [3] has as its target Wild-type recombinant human NGAL dimer expressed in CHO cells (human) (UniProt P80188). Described as above.
The target in assay [4] is Wild-type recombinant human NGAL dimer calibrators treated with DTT (human) (UniProt P80188). The assay is described as above.
In assay [5] the target is Wild-type recombinant human NGAL monomer expressed in CHO cells (human) (UniProt P80188). The experiment in a line: … sandwich CMIA, capture HYB 211-01, detection acridinium-HYB 211-02; curve fit with monomer calibrators; target 1000 ng/mL.
Assay [6] concerns the target Wild-type recombinant human NGAL dimer expressed in CHO cells (human) (UniProt P80188). The assay is described as above.
The target of assay [7] is Wild-type recombinant human NGAL dimer calibrators treated with DTT (human) (UniProt P80188). The assay is described as above.
In assay [8] the target is Wild-type recombinant human NGAL monomer expressed in CHO cells (human) (UniProt P80188). In words: … sandwich CMIA, capture HYB 211-01, detection acridinium-HYB 211-02; curve fit with monomer calibrators; target 600 ng/mL.
Assay [9] concerns the target Wild-type recombinant human NGAL dimer expressed in CHO cells (human) (UniProt P80188). Described as above.
In assay [10] the target is Wild-type recombinant human NGAL dimer calibrators treated with DTT (human) (UniProt P80188). The description is as above.
The target is the same in assay [11]. The experiment in a line: … sandwich CMIA, capture HYB 211-01, detection acridinium-HYB 211-02; DTT-treated against untreated dimer calibrator; target 600 ng/mL.
The target in assay [12] is Wild-type recombinant human NGAL dimer calibrators with TCEP in the reaction mixture (human) (UniProt P80188). In words: … sandwich CMIA, capture 1-2322-455, detection acridinium-1-903-430; TCEP in reaction; curve fit with monomer calibrators; target 1000 ng/mL.
The target in assay [13] is Wild-type recombinant human NGAL monomer expressed in CHO cells (human) (UniProt P80188). The experiment in a line: … sandwich CMIA, capture 1-2322-455, detection acridinium-1-903-430; curve fit with monomer calibrators; target 250 ng/mL.
Assay [14] addresses Wild-type recombinant human NGAL dimer expressed in CHO cells (human) (UniProt P80188). The assay is described as above.
Assay [15] has the same target. In words: … sandwich CMIA, capture 1-2322-455, detection acridinium-1-903-430; NGAL Dimer Low, 150 ng/mL dimer calibrator.
The target of assay [16] is Wild-type recombinant human NGAL monomer expressed in CHO cells (human) (UniProt P80188). The experiment in a line: … sandwich CMIA, capture 1-2322-455, detection acridinium-1-903-430; NGAL 5 ng/mL.
For assay [17], the target named is Wild-type recombinant human NGAL dimer expressed in CHO cells (human) (UniProt P80188). The assay is described as above.
For assay [18], the target named is Wild-type recombinant human NGAL dimer calibrators with TCEP in the reaction mixture (human) (UniProt P80188). The experiment in a line: … sandwich CMIA, capture 1-2322-455, detection acridinium-1-903-430; TCEP in reaction; NGAL 250 ng/mL.
Assay [19] deals with Wild-type recombinant human NGAL monomer expressed in CHO cells (human) (UniProt P80188). In words: … sandwich CMIA, capture 1-2322-455, detection acridinium-1-903-430; NGAL 1000 ng/mL.
Assay [20] concerns the target Wild-type recombinant human NGAL dimer expressed in CHO cells (human) (UniProt P80188). Described as above.
Assay [21] addresses Wild-type recombinant human NGAL monomer expressed in CHO cells (human) (UniProt P80188). The experiment in a line: … sandwich CMIA, capture 1-2322-455, detection acridinium-1-903-430; monomer calibrator plus TCEP; NGAL 1000 ng/mL.
Assay [22] has as its target Wild-type recombinant human NGAL dimer calibrators with TCEP in the reaction mixture (human) (UniProt P80188). The experiment in a line: … sandwich CMIA, capture 1-2322-455, detection acridinium-1-903-430; TCEP in reaction; curve fit with monomer calibrators; target 50 ng/mL.
Assay [23] addresses Wild-type recombinant human NGAL monomer expressed in CHO cells (human) (UniProt P80188). In words: … sandwich CMIA, capture 1-2322-455, detection acridinium-1-903-430; monomer calibrator plus TCEP; NGAL 50 ng/mL.
The target is the same in assay [24]. In words: … sandwich CMIA, capture 1-2322-455, detection acridinium-1-903-430; monomer calibrator plus TCEP; curve fit with monomer calibrators; target 600 ng/mL.
For assay [25] the target is unchanged. In words: … sandwich CMIA, capture 1-2322-455, detection acridinium-1-903-430; monomer calibrator plus TCEP; curve fit with monomer calibrators; target 5 ng/mL.

The values below come from patent EP2225268B1.

Turning to “anti-NGAL antibody HYB 211-01 from AntibodyShop A/S, Gentofte, Denmark”, the figures for the % Increase due to DTT in [1] and in assay [11] were 247% and 256%, respectively. Also, the results for the RLUs in [2], in assay [3] and in [4] were 396000 RLUs, 142000 RLUs and 378000 RLUs, respectively. Also, the Curve Fit Results in [5] is 1000 ng/mL; in assay [6], 245 ng/mL; in assay [7] it was 924 ng/mL; in assay [8] it was 598 ng/mL; in assay [9], 161 ng/mL; in [10] it was 574 ng/mL.

B1: antibody produced by murine hybridoma cell line 1-2322-455 having ATCC Accession No. PTA-8024 (antibody, V domains shown)
VH: EVQLVESGGGLVQPGGSLKLSCAASGFTFNNYYMSWVRQTPERRLEWVAYISSSGGSTYYSDSVRGRFTISRDTARNTLYLQMTSLKSEDTAMYYCARHFGDYSYFDYWGQGTTLTVSS
VL: DIQMTQSPASLSASVGETVTITCRASENFYSYLAWYQQKQGKSPQLLVYNAKTLAEGVPSRFSGSGSGTQFSLKINSLQPEDFGTYYCQHHYDIPLTFGAGTKLELKR
On to B1, for which the Curve Fit Results in assay [12] amounted to 497 ng/mL; in assay [13] it was 255 ng/mL; in assay [14] it was 71.7 ng/mL; in assay [22], 24.5 ng/mL; in [24], 608 ng/mL; in assay [25], 4.6 ng/mL. Besides, the NGAL concentration detected in assay [15] came to 33.9 ng/mL. Further, the RLUs worked out at 29300 RLUs in assay [16]; 9120 RLUs in assay [17]; 535000 RLUs in [18]; 1.93e+06 RLUs in [19]; 993000 RLUs in assay [20]; 1.95e+06 RLUs in assay [21]. For the same molecule, the RLUs in assay [23] was 241000 RLUs.
